Assay [1] concerns the target T1, FLRT3-His monomeric fusion protein (Homo sapiens (Human), UniProt Q9NZU0 29-528).
T1 construct: also called FLRT3 monomer; not shown: His tag
T1 sequence: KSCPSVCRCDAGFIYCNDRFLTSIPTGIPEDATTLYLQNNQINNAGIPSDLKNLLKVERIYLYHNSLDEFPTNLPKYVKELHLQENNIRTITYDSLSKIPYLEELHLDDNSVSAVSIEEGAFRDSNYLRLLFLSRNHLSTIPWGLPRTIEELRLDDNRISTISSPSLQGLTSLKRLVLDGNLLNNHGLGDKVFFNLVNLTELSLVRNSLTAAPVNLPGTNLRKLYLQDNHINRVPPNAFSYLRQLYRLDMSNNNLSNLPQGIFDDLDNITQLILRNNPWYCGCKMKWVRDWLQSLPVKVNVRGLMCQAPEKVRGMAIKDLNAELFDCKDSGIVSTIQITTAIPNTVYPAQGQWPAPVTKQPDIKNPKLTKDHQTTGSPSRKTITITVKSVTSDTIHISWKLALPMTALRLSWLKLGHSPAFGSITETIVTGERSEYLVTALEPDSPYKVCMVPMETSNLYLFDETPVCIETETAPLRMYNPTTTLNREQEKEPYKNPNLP
Briefly: kinetic affinity measurement with FLRT3-His monomer (Table 1).

For assay [2], the target named is T2, human FLRT3 on cells (human, UniProt Q9NZU0 29-649).
T2 construct: also called hFLRT3
T2 sequence: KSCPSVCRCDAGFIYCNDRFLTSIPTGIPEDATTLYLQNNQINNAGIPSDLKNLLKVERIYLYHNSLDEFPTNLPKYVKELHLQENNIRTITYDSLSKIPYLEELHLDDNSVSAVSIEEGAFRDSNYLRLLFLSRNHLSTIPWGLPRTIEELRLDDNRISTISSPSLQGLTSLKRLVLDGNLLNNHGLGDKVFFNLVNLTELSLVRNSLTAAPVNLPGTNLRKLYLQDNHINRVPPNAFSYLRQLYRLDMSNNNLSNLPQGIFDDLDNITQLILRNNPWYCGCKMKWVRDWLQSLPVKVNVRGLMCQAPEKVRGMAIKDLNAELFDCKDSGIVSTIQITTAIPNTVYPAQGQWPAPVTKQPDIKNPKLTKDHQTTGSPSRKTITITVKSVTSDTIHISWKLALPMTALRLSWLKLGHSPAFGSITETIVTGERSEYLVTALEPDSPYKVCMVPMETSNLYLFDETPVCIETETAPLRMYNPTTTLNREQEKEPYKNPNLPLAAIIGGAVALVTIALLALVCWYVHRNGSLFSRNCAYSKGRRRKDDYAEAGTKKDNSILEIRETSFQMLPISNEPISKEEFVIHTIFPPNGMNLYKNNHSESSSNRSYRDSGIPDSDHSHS
The assay is described as follows: flow cytometry (AF647 MFI), FLRT3-293T-OKT3 cells, antibody titration.

Assay [3] deals with T3, FLRT3 (antigen of the binning assay of Table 2) (Homo sapiens (Human), UniProt Q9NZU0 29-528, limits assumed).
T3 construct: the whole entry for FLRT3 is named
T3 sequence: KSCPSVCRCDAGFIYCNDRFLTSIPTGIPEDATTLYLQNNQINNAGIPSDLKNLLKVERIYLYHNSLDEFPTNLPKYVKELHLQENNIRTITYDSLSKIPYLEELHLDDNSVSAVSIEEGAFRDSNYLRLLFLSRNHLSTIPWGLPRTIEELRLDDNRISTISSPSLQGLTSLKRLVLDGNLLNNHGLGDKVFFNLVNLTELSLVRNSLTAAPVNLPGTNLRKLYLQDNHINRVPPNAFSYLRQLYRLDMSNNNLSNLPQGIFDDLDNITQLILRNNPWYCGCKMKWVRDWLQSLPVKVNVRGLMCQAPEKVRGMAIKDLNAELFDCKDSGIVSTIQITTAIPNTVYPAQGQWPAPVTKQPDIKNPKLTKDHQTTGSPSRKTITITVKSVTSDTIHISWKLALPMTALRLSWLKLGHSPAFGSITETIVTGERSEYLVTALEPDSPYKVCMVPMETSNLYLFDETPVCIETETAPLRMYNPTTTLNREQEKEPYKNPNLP
The assay is described as follows: antibody binning matrix (Table 2); competitor: 1H5.

Assay [4] has as its target T3, FLRT3 (antigen of the binning assay of …). The assay is described as follows: antibody binning matrix (Table 2); competitor: 2F7.
Assay [5] has the same target. Briefly: antibody binning matrix (Table 2); competitor: 5C2.
For assay [6] the target is unchanged. The assay is described as follows: antibody binning matrix (Table 2); competitor: 14B7.
Assay [7] shares this target. Briefly: antibody binning matrix (Table 2); competitor: 14D3.
The target is the same in assay [8]. The assay is described as follows: antibody binning matrix (Table 2); competitor: 15G11.
Assay [9] has the same target. The assay is described as follows: antibody binning matrix (Table 2); row '1X Kinetic' (no first antibody), column antibody taken as binder.
The target in assay [10] is T2, human FLRT3 on cells. Briefly: flow cytometry on A549 cells (endogenous hFLRT3), normalised MFI, non-linear fit. Here is the method:
Increasing concentrations of FLRT3 antibodies bound to A549 cells that express endogenous hFLRT3 (FIG. 19). Binding curves for the top three antibodies were performed (FIG. 20A). MFI values of each group were normalized within that group- i.e. largest value 100% and smallest value 0% (FIG. 20A). EC50 values were calculated based on non-linear regression fit (FIG. 20B).
In general terms: Flow cytometry measures light scatter and fluorescence of single cells or particles in a stream.

In assay [11] the target is T2, human FLRT3 on cells. The assay is described as follows: flow cytometry on 293T cells transfected with human FLRT3, normalised MFI, non-linear fit; Exp 1. An excerpt: (§1) MFI values of each group were normalized within that group- i.e. largest value 100% and smallest value 0%.
For assay [12], the target named is T2, human FLRT3 on cells. The assay is described as follows: flow cytometry on 293T cells transfected with human FLRT3, normalised MFI, non-linear fit; Exp 2.
Excerpt: as §1

The target of assay [13] is T4, mouse FLRT3 on transiently transfected 293T cells (mouse, UniProt Q8BGT1 29-649).
T4 construct: also called mFLRT3
T4 sequence: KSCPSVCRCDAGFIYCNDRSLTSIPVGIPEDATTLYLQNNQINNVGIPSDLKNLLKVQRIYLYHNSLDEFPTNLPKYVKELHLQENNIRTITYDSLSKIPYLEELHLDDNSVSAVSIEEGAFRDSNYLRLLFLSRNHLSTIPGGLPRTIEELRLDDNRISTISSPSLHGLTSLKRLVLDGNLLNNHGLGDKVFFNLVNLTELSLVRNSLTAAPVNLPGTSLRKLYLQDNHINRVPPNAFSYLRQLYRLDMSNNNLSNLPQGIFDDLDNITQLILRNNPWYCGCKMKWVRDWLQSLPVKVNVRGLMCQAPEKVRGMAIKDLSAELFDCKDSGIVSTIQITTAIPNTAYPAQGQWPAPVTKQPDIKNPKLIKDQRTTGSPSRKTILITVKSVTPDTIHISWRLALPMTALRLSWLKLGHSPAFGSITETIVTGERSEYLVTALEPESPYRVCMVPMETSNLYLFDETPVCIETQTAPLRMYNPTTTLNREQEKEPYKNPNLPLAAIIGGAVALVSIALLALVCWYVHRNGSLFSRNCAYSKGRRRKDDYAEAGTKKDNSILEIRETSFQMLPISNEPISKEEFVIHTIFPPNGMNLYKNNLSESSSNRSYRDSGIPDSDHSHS
Briefly: flow cytometry (AF647 MFI), transiently transfected mFLRT3-293T cells.

Assay [14] deals with T2, human FLRT3 on cells. Briefly: flow cytometry on 293T cells transfected with human FLRT3, normalised MFI, non-linear fit.
Excerpt: as §1

B1: 20C3 (antibody, V domains shown)
VH: EVKLEESGGGLVQPGGSMKLSCVVSGFTFSNYWMNWVRQSPEKGLEWVAQIRLKSDNYATHYAESVKGRFTISRDDSKSSVYLQMNNLRAEDTGIYYCTGESNIYYGYFDYWGQGTTLTVSS
VL: QIVLTQSPAIMSASPGEKVTMTCSASSSVSYMHWYQQKSGTSPKRWIYDTSKLASGVPARFSGSGSGTSYSLTISSMEAEDAATYYCQQWSGNPYTFGGGTKLEIK
notes: Variable domains only
The term Kd denotes the equilibrium constant for the complex coming apart. The low end stands for higher affinity, the high end for lower affinity. For orientation: koff means the first-order rate constant of dissociation. High values mean fast dissociation, low ones slow dissociation. What is called kon is a measure of how fast the partners come together. The low end stands for slow association, the high end for fast association. On to B1, for which, in [1], the Kd came out at 2.21 nM, the koff is 0.000207 s⁻¹ and the kon came to 86200 M⁻¹ s⁻¹.

B2: 10C6 (antibody, V domains shown)
VH: EIQLQQSGAEMVKPGASVKISCKASGHSFTGYNMNWVKQSHEKSLEWIGNINPYYGSTSYNQKFKGKATLTVDKSSSTAYMQLNSLTSEDSAVYYCARGGYDDYFDYWGQGTTLTVSS
VL: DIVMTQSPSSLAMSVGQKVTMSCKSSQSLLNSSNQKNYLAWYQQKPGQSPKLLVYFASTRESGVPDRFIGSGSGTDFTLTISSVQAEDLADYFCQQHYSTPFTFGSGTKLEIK
notes: Variable domains only
As for B2, in the assay with human FLRT3 on cells [2], the binding result is recorded as “no binding (tested: about 300 nM)”.

B3: 7H7 (antibody, V domains shown)
VH: EIQLQQSGAELVKPGASVKISCKASGYSFTGYNMNWVKQSHGKSLEWIGNINPYYGSTSYNQKFKGKATLTVDKSSNTAYMQLNSLTSEDSAVYYCARWGYGYDDWYFDVWGAGTTVTVSS
VL: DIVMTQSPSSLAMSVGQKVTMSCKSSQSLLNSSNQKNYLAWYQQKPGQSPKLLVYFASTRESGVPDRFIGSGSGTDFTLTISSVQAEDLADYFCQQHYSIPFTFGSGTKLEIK
notes: Variable domains only
In [1], B3 had a Kd of at most 0.001 nM, a koff of at most 1e-07 s⁻¹ and a kon of 60500 M⁻¹ s⁻¹.

B4: 1H5 (antibody, V domains shown)
VH: EVQLQQSGPELVKPGASVKMSCKASGYTFTDYYMNWVKQSHGKSLEWIGRVNPSNGVTSYNQKFKGKAALTVDKSLSTAYMQLNSLTSEDSAVYYCARDFLMDYWGQGTSVTVSS
VL: DIVMTQSHKFMSTSVGDRVTITCKASQDVGTAVAWYQQKPGQSPKLLIYWASTRHTGVPDRFTGSGSGTDFTLTISNVQSEDLADYFCQQYSSYPTFGGGTKLEIK
notes: Variable domains only
The EC50 (read off the curve) is the midpoint of the concentration-response curve. Regarding B4, the “binning response (no name or unit printed)” value in assay [3] is -0.0568; in [4], -0.0098; in assay [5] it was -0.26; in assay [6], 1.2; in [7], 0.549; in assay [8], 0.97. Besides, the “binning response (no name or unit printed)” value in assay [9] was determined as 0.947. This molecule also gave a Kd in [1] of 0.19 nM. The koff in assay [1] is 1.6e-05 s⁻¹. The molecule also yielded a kon in assay [1] of 140000 M⁻¹ s⁻¹. In addition, the concentration giving a half-maximal response (EC50 (read off the curve)) in the assay with human FLRT3 on cells [2] was around 10 nM.

B5: 2F7 (antibody, V domains shown)
VH: EVQLQQSGPELVKPGASVKMSCKASGYTFTDYYMNWVKQSHGKSLEWIGRVYPSNSGASYNQKFKGKATLTVDKSLSTAYMQLNSLTSEDSAVYYCASSYYFDYWGQGTTLTVSS
VL: DIVMTQSHKFMSTSIGDRVNITCKASQDVGTAVAWFQQKPGQSPKLLIYWASTRHTGVPDRFTGSGSGTDFTLTISNVQSEDLADYFCQQYSSYPTFGAGTTLELK
notes: Variable domains only
B5: the “binning response (no name or unit printed)” value in assay [3] is -0.116; in [4] it was -0.0655; in assay [5], -0.398; in assay [6] it was 1.06; in [7], 0.38; in [8], 0.798. In addition, in [9], the “binning response (no name or unit printed)” value was found to be 0.99. Besides, the koff in assay [1] is 0.000135 s⁻¹. The molecule further returned a kon in assay [1] of 177000 M⁻¹ s⁻¹. Moreover, the “EC50 (read off the curve)” value with human FLRT3 on cells [2] was around 8 nM.

B6: 12A4 (antibody, V domains shown)
VH: EVQLQQSGPELVKPGASVKMSCKASGYTFTDYYMNWVKQSHGKSLEWIGRVNPSNGGTTYNQRFKGKATLTVDESLSTAYMQLNSLTSEDSAVYYCARDFLMDYWGQGTSVTVSS
VL: DIVMTQSHKFMSTSVGDRVSITCKASQDVGTAVTWYQQKPGLSPKLLFYWASTRHTGVPDRFTGSGSGTDFTLTISNVQSEDLADYFCHQYSNYPTFGGGTKLEIK
notes: Variable domains only
As usually defined, the EC50 is the concentration giving half of the maximal effect. A low value points to a more potent agent. B6 returned a Kd in [1] of 0.218 nM. This molecule yielded a koff in assay [1] of 3.24e-05 s⁻¹. This molecule also yielded a kon in [1] of 133000 M⁻¹ s⁻¹. Also, the EC50 with human FLRT3 on cells [10] worked out at 251 nM; in the assay with human FLRT3 on cells [11] it was 15.7 nM; in the assay with human FLRT3 on cells [12], 17.7 nM.

B7: 14D3 (antibody, V domains shown)
VH: EIQLQQSGAELVKPGASVKISCKASGYSFTGYNMNWVKQSHGKSLEWIGNITPYYGSASYNQKFKGKATLTVDKSSSTAYMQLNSLTSEDSAVYYCARRSYDYDENAMDYWGQGTSVTVSS
VL: DIVMTQSHKFMSTSVGDRVSITCKASQDLSTAVAWYQQKPGQSPKLLIYSASYRYTGVPDRFTGSGSGTDFTFTISSVQAEDLAVYYCQQHYSTPLTFGAGTKLELK
notes: Variable domains only
B7: the “binning response (no name or unit printed)” value in assay [3] is 0.644; in [4] it was 0.75; in assay [5], -0.101; in assay [6], 1.36; in assay [7] it was -0.0406; in assay [8], 0.196. Besides, the “binning response (no name or unit printed)” value in assay [9] came out at 0.947. Besides, the binding result in [13] was “binds”. Further, the EC50 was 8.21 nM in the assay with human FLRT3 on cells [10], below 5 nM with human FLRT3 on cells [14], 1.82 nM with human FLRT3 on cells [11] and 3.24 nM in the assay with human FLRT3 on cells [12].

These data come from US20230357384A1 (NEXTCURE, published 2023).
